Laboratory results reported in PMC9959916, “A Highly Conserved Region in BRCA2 Suppresses the RAD51-Interaction Activity of BRC Repeats” (Veterinary Sciences, 2023).
Substitutions are numbered along the chain they refer to.

B1: Gal4 DNA-binding domain-fused cBRC1-HCR-BRC2 (canine BRCA2 993–1248 aa) [canine (Canis lupus familiaris)] / VP16-fused canine RAD51 [canine] (parent complex)
chain 1: PISNHSFENGFKTASNKEIKLSENNIRKSKMLFKDIEEHYPTNLACLEIVNTSSLESQKKPSKSHALDPQSINIISGFVQNSTYVSDSESGHTAPPTLSLKQDFDSNRNLTPSQKAEITELSTILEESGSQFEFTQFRKPSHIIQKNPFEMPENQLTILNSTSKEWKDDDLHLTTNAPSISQVDSKKSEGIIGGKQKFACLSRTSCNRSASGYSTDKNEVEFRGFYSARGTKLNVGSEALQKAKKLFSDLENINEE
chain 2: MAMQMQLEANADTSVEEESFGPQPISRLEQCGINANDVKKLEEAGFHTVEAVAYAPKKELISIKGISEAKADKILTEAAKLVPMGFTTATEFHQRRSEIIQITTGSKELDKLLQGGIETGSITEMFGEFRTGKTQICHTLAVTCQLPIDRGGGEGKAMYIDTEGTFRPERLLAVAERYGLSGSDVLDNVAYARGFNTDHQTQLLYQASAMMVESRYALLIVDSATALYRTDYSGRGELSARQMHLARFLRMLLRLADEFGVAVVITNQVVAQVDGAAMFAADPKKPIGGNIIAHASTTRLYLRKGRGETRICKIYDSPCLPEAEAMFAINADGVGDAKD
B2: FLAG-HA-NLS-fused cBRC1-HCR-BRC2 (canine BRCA2 993–1248 aa) [canine (Canis lupus familiaris)] / endogenous RAD51 (HeLa cells) [human (endogenous in HeLa)] (parent complex)
chain 1: B1 chain 1
chain 2: B1 chain 2 with S62N, T76A, G194A

Variants of: B1
Experiment: mammalian two-hybrid assay; n = 4; parent: 3.1; read off a plot

Variant	response [Firefly/Renilla]
chain 1 T123P	~2
chain 1 I118M	~3.3
chain 1 S122P	~2.6

Variants of: B2
Experiment: co-immunoprecipitation (anti-FLAG IP, Western blot quantification); lysates from HeLa cells stably expressing the FLAG-HA-NLS-fused peptide; parent: 1

Variant	ratio to parent
chain 1 S122P	0.52
chain 1 T123P	0.57
chain 1 I118M	0.92
